Patent US11491212
Values joined by “and” are separate entries in the source; they are usually repeats but may differ in a detail not shown here. Equal entries are not always repeated.

B1: FIXa-R318Y/R403E/E410N (protein)
chain 1: not shown
chain 2: not shown
B2: FIXa-D203N/F205T/R318Y (protein)
chain 1: not shown
chain 2: not shown
B3: FIXa-D203N/F205T/R338E (protein)
chain 1: not shown
chain 2: not shown
B4: FIXa-D203N/F205T/R338E/R403E (protein)
chain 1: not shown
chain 2: not shown
B5: FIXa-K228N/R318Y/E410N (protein)
chain 1: not shown
chain 2: not shown
B6: FIXa-D203N/F205T/R338A (protein)
chain 1: not shown
chain 2: not shown
B7: FIXa-R318Y/R338E/R403E/E410N (protein)
chain 1: not shown
chain 2: not shown
B8: FIXa-A103N/N105S/R318Y/R338E/R403E/E410N (protein)
chain 1: not shown
chain 2: not shown
B9: FIXa-D104N/K106S/R318Y/R338E/E410N (protein)
chain 1: not shown
chain 2: not shown
B10: FIXa-D104N/K106S/R318Y/R338E/R403E/E410N (protein)
chain 1: not shown
chain 2: not shown
B11: FIXa-Y155F/R318Y/R403E/E410N (protein)
chain 1: not shown
chain 2: not shown
B12: FIXa-Y155F/R318Y/R338E/E410N (protein)
chain 1: not shown
chain 2: not shown

What follows are proteins tested against Factor X (FX), P00742.
Sequence of Factor X (FX), P00742 (P00742 whole entry, looked up): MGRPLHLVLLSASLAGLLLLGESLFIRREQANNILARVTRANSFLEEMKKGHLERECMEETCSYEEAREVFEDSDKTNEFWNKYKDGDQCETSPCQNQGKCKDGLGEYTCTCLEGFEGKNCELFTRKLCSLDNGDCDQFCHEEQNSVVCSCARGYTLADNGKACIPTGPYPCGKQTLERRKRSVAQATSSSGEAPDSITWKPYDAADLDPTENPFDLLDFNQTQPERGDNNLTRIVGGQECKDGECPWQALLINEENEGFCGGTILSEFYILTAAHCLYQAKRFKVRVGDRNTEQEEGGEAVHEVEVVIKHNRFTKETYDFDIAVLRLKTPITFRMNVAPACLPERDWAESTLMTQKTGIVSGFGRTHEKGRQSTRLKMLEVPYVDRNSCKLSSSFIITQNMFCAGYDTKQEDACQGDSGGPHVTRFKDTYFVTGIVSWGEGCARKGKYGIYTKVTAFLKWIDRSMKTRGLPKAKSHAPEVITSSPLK

Row | Protein | % of WT kcat/KM | KM | KM for FX activation by FIXa in the Xase complex (FVIIIa/PC-PS/Ca2+), fluorogenic Spectrafluor FXa assay | kcat | kcat/KM
1 | B1 | 59% and 54% | 0.0942 µM | 0.0883 µM | 2.3 s⁻¹ | 2.7e+07 M⁻¹ s⁻¹
2 | B2 | – | 0.0475 µM | 0.0475 µM | 0.9 s⁻¹ | –
3 | B3 | – | 0.0241 µM | 0.0241 µM | 2.5 s⁻¹ | –
4 | B4 | – | 0.0511 µM | 0.0511 µM | 0.9 s⁻¹ | –
5 | B5 | 272% and 264% | 0.042 µM | 0.042 µM | 5 s⁻¹ | –
6 | B6 | – | 0.0385 µM | 0.0385 µM | 2.3 s⁻¹ | –
7 | B7 | 262% and 320% | 0.0432 µM | 0.0455 µM | 5.8 s⁻¹ | 1.2e+08 M⁻¹ s⁻¹
8 | B8 | 327% and 318% | 0.0447 µM | 0.0447 µM | 5.4 s⁻¹ | –
9 | B9 | 581% and 564% | 0.0189 µM | 0.0189 µM | 4.8 s⁻¹ | –
10 | B10 | 377% and 366% | 0.0385 µM | 0.0385 µM | 5.7 s⁻¹ | –
11 | B11 | 78% | 0.111 µM | – | 2.9 s⁻¹ | –
12 | B12 | 835% and 810% | 0.016 µM | 0.016 µM | 5.6 s⁻¹ | –
